Measured values: PMC4106346, “The Oligomeric States of the Purified Sigma-1 Receptor Are Stabilized by Ligands” (The Journal of Biological Chemistry, 2014)

B1: TM2 domain of in the TOXCAT construct (between MBP and ToxR) [guinea pig] / itself (parent)
chain: WVFVNAGGWMGAMCLLHASL

Variants of: B1
Assay: TOXCAT
Conditions: with itself;; read off a plot

| Variant | response [%GpA] |
| --- | --- |
| chain 1 G7I | 94 |
| chain 1 G7L | 77 |
| chain 1 G7L G8L | -2.7 |
| chain 1 G8I | 100 |
| chain 1 G8L | 89 |
| chain 1 H17A | 20 |
